Laboratory results published in US20150238626A1, “RECEPTOR LIGAND LINKED CYTOTOXIC MOLECULES” (ONTOCHEM GMBH, priority 2012, published 2015).

What was measured:
[1] = target: human Y2 receptor C-terminally fused to EYFP (human) (UniProt P49146)
[2] = target: human Y2 receptor C-terminally fused to EYFP (human) (UniProt P49146); remark: listed apart in the source
[3] = target: human Y1 receptor C-terminally fused to EYFP (human) (UniProt P25929)

## NPY (ligand)
[1]
  EC50, functional IP3 second messenger assay: 0.5 nM
[2]
  EC50, functional CRE reporter gene assay: 0.87 nM
[3]
  EC50, functional CRE reporter gene assay: 0.77 nM
